Assay results from patent US20220195446.

Columns and labels:
[1] = system: ZnFng-WUS2 ATF (synthetic construct); assay: cell_activity; settings: endogenous WUS2 mRNA by RT-PCR relative to Act1 in corn protoplasts; range 15-60%; mock nearly zero; binding inferred from activation
[2] = system: ZnFng-WUS1 ATF (synthetic construct); assay: cell_activity; settings: endogenous WUS2 mRNA by RT-PCR relative to Act1 in corn protoplasts; range 8-12%; mock nearly zero; binding inferred from activation
Chain of ZnFng-WUS1 ATF (synthetic construct) (chain, as listed by the source): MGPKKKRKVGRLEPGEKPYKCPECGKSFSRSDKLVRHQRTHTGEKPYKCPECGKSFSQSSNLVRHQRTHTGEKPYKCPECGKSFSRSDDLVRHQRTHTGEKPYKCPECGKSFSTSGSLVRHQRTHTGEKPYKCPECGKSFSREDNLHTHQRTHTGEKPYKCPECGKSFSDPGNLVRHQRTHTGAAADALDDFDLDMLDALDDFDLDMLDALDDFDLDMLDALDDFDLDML

Chain of ZnFng-WUS2 ATF (synthetic construct) (chain, as listed by the source): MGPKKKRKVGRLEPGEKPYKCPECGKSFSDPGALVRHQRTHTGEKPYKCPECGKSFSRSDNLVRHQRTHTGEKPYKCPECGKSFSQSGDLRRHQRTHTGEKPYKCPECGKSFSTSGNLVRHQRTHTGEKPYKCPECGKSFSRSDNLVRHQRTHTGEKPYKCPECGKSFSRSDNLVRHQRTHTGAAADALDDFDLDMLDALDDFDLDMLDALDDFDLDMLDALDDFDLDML

GAGGAGGATGCAGAGGTC (double strand)
activity [1]: 50 % of actin

GACTAGGTTGCGGAAGGG (double strand) [ZnFng-WUS1 binding site in maize WUS2 promoter]
activity [2]: 10 % of actin
